{"source": "patent US20230303694A1", "about": "(LAVA THERAPEUTICS N V, published 2023)", "binders": {"B1": {"name": "bispecific VHH 7D12var8-5C8var1-Y105F (bispecific antibody)", "chain": "EVQLVESGGGSVQPGGSLRLSCAASGRTSRSYGMGWFRQAPGKEREFVSGISWRGDSTGYADSVKGRFTISRDNAKNTVDLQMNSLRAEDTAVYYCAAAAGSAWYGTLYEYDYWGQGTLVTVSSGGGGSEVQLLESGGGSVQPGGSLRLSCAASGRPFSNYAMSWFRQAPGKEREFVSAISWSGGSTSYADSVKGRFTISRDNSKNTLYLQMNSLRAEDTAVYYCAAQFSGADFGFGRLGIRGYEYDYWGQGTQVTVSS"}, "B2": {"name": "7D12var8-5C8var1(Y105F)-Fc (bispecific antibody, V domains shown)", "V domain 1": "EVQLVESGGGSVQPGGSLRLSCAASGRTSRSYGMGWFRQAPGKEREFVSGISWRGDSTGYADSVKGRFTISRDNAKNTVDLQMNSLRAEDTAVYYCAAAAGSAWYGTLYEYDYWGQGTLVTVSS", "V domain 2": "EVQLLESGGGSVQPGGSLRLSCAASGRPFSNYAMSWFRQAPGKEREFVSAISWSGGSTSYADSVKGRFTISRDNSKNTLYLQMNSLRAEDTAVYYCAAQFSGADFGFGRLGIRGYEYDYWGQGTQVTVSS", "notes": "Heterodimer of two VHH-Fc chains: the anti-EGFR 7D12var8-Fc (hole) and the anti-Vδ2 5C8var1(Y105F)-Fc (knob); The Fc is human IgG1 with L234F/L235E and a modified hinge; also called 7D12var8-5C8var1(Y105F) with Fc region"}}, "key": {"[1]": {"molecular_target": "T1, epidermal growth factor receptor (EGFR) on EGFR-expressing tumor cell lines A-431, HCT-116 and HT-29 (human, UniProt P00533 25-1210)", "assay": "cell-based or functional assay"}, "[2]": {"molecular_target": "human Vγ9Vδ2 T cell receptor (TCR) on primary Vγ9Vδ2 T cells (human), Q99603", "assay": "cell-based or functional assay"}, "[3]": {"molecular_target": "T1, epidermal growth factor receptor (EGFR) …", "assay": "cell-based ELISA on A-431 cells, anti-IgG1-HRP, signal at 450 nm", "procedure": "To this end, tumor cells were first seeded at different concentrations on day −1 to reach a concentration of approximately 50000 cells/well on day 0. […] Bound antibodies were then labelled in a secondary incubation step with anti-IgG1-HRP for one hour at 37° C. The secondary antibody binding was then resolved by the addition of 3,3′,5,5′-Tetramethylbenzidine and the colorimetric change induced by the HRP, followed by the addition of H2SO4 to stop the reaction. The optical density (OD) was then measured in a UV spectrometer at a wavelength of 450 nm."}}, "data": [{"binder": "B1", "values": [{"measurement": "EC50 cytotoxicity (A431 tumor cell kill, 24 h, with Vγ9Vδ2 T cells)", "setting": "[1]", "value": 0.0025, "unit": "nM"}, {"measurement": "EC50 degranulation (CD107A+ Vγ9Vδ2 T cells, 4 h, with A431 cells)", "setting": "[2]", "value": 0.011, "unit": "nM"}]}, {"binder": "B2", "values": [{"measurement": "EC50 (read off the curve)", "setting": "[3]", "value": "~2", "unit": "nM"}]}]}
